The values below come from patent US5451411A, “Methods and compositions for the oral delivery of therapeutic agents” (University of Washington, priority 1993, dated 1995).

Series [1] in a line: Encapsulation efficiency of 125I-TGF-β1 in alginate beads. Format: physicochemical. As for the experimental part:
Radioiodination of TGF-β1 : Radioiodination of TGF-β1 was completed in a 3.0-mL Eppendorf tube using a modified chloramine-T method (A. Tuong et al., "Site Specific Radioiodination of Recombinant Himdin," Annal. Biochem. 189:186-191 (1990)). To TGF-β1 (1 mg/1 mL) in 5 mMHCl, 10 μL of carrier-free Na^125 I (1.0 mCi) was added and mixed for 5 minutes. 100 μL of 0.1% chloramine-T was then added and, after vortexing for 60 seconds, the reaction was stopped by the addition of 100 μL of aqueous 0.1% mercaptoethanol followed by 100 μL of […]. ^125 I-TGF-β1 was diluted by adding 1.2 mL of citrate phosphate buffer (CPB), pH 2.6.
Free ^125 I was separated from ^125 I-TGF-β1 by gel filtration on a prepacked Sephadex G-25 column from Pharmacia (Uppsala, Sweden) preequilibrated with CPB. Twenty fractions of 0.5 mL each were collected, and aliquots were counted for activity using a γ-scintillation counter (Model 1185 GammaTrac; Tm Analytic; Elk Grove Village, IL). Separated ^125 I-TGF-β1 (S.A.=0.72 nCi/ng or 187 ng/μL was stored at 4° C. in 1.5 mL-Eppendofftubes. […]
Formation of Beads: 1.5 mL of the prebead mixture was drawn into a syringe equipped with a 30 G needle. […] If ^125 I-TGF-β1 was incorporated in the beads, calcium chloride was retained and counted for activity along with the 1.5 mL-Eppendoff tube to determine the % encapsulation of TGF-β1 in beads. […]

Series [2] concerns proliferating cell nuclear antigen (PCNA). The experiment in a line: Cell proliferation in intestinal crypts (PCNA immunohistochemistry, proliferating index). In kind it is in vivo, Sprague-Dawley rats. Conditions: TGF-β1 I.P. or P.O. in PBS. As for the experimental part: Adult male Sprague-Dawley rats (250±30 g) were caged individually and handled according to the guidelines of American Association for the Accreditation of Laboratory Animal Care (AAALAC). For peroral administration of TGF-β1, the rats were anesthetized with intramuscularly injected ketamine-HCl (40 mg/kg) (Vetalar®, Aveco Inc., Fort Dodge, Iowa) and a catheter was inserted into the stomach perorally to exclude the failure of the formulation to reach stomach and intestine. Intraperitoneal injections were performed into the lower right quadrant of the abdomen. […]
Cell proliferation was quantified using immunohistochemical techniques for detecting proliferating cell nuclear antigen (PCNA), an endogenous marker of proliferating cells. […] The proliferating index (PI) was calculated as the number of epithelial cells in G1, S, G2 or M phase of the cell cycle per length (ram) of crypts counted. Four 0.25 mm areas (1 mm total) were scored for cell proliferation.

Regarding “TGF-β1: TGF-β1 (1 mg/mL in 5 mM HCl) obtained from Bristol-Myers Squibb (Seattle, WA)”, the “Encapsulation efficiency of TGF-β1 in alginate beads” value in series [1] (prebead mixtures made in polypropylene tubes, most preparations) is given as “greater than 97.5%”. Moreover, the “Loss of TGF-β1” value in series [1] (use of glass vials) is given as “more than 98%”. Also, in series [2], the PCNA staining result was “moderate staining”.
